Where a chain is given by its changes, count along the chain named.
T1: PlexA1‐4‐mVenus (Drosophila melanogaster, UniProt Q9V491 28-730)
T1 chain: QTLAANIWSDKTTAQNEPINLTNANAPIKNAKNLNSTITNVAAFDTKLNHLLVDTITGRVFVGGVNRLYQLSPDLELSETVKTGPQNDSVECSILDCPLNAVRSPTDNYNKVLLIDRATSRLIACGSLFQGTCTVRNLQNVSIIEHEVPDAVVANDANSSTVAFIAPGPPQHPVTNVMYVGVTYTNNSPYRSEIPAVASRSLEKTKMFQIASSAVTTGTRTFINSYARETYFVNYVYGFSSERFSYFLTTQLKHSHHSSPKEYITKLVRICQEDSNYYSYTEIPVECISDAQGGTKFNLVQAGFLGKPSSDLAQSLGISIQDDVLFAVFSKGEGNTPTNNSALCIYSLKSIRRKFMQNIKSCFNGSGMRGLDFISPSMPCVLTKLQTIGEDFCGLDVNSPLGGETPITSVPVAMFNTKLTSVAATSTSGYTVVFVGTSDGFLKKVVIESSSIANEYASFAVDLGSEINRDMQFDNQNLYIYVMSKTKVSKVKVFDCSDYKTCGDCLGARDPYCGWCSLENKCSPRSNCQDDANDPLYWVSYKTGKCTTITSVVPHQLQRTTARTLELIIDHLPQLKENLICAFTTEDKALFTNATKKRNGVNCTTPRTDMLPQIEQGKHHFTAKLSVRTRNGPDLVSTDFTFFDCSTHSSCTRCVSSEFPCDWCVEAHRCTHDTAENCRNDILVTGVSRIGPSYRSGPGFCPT

T2: PlexA1‐4‐mVenus (Drosophila melanogaster, UniProt Q9V491 28-730)
T2 construct: Plexin A (PlexA), Drosophila melanogaster, domains 1-4, residues 28–730; monoVenus follows PlexA1-4 and is followed by the His6 tag; source: HEK 293T, transient transfection, purified (HisTrap, SEC); not shown: mVenus, C-terminal, kept
T2 sequence (looked up): T1 chain

T3: PlexA‐mClover (Drosophila melanogaster, UniProt Q9V491 28-1311)
T3 construct: Plexin A (PlexA), Drosophila melanogaster, residues 28–1,311: ectodomain followed by a transmembrane segment; not the purified PlexA‐mClover (residues 67–1,274) used as donor-only control in solution; also called FRET donor PlexA‐mClover; source: COS-7, transiently transfected, on live cells; not shown: mClover, C-terminal, kept
T3 sequence (looked up): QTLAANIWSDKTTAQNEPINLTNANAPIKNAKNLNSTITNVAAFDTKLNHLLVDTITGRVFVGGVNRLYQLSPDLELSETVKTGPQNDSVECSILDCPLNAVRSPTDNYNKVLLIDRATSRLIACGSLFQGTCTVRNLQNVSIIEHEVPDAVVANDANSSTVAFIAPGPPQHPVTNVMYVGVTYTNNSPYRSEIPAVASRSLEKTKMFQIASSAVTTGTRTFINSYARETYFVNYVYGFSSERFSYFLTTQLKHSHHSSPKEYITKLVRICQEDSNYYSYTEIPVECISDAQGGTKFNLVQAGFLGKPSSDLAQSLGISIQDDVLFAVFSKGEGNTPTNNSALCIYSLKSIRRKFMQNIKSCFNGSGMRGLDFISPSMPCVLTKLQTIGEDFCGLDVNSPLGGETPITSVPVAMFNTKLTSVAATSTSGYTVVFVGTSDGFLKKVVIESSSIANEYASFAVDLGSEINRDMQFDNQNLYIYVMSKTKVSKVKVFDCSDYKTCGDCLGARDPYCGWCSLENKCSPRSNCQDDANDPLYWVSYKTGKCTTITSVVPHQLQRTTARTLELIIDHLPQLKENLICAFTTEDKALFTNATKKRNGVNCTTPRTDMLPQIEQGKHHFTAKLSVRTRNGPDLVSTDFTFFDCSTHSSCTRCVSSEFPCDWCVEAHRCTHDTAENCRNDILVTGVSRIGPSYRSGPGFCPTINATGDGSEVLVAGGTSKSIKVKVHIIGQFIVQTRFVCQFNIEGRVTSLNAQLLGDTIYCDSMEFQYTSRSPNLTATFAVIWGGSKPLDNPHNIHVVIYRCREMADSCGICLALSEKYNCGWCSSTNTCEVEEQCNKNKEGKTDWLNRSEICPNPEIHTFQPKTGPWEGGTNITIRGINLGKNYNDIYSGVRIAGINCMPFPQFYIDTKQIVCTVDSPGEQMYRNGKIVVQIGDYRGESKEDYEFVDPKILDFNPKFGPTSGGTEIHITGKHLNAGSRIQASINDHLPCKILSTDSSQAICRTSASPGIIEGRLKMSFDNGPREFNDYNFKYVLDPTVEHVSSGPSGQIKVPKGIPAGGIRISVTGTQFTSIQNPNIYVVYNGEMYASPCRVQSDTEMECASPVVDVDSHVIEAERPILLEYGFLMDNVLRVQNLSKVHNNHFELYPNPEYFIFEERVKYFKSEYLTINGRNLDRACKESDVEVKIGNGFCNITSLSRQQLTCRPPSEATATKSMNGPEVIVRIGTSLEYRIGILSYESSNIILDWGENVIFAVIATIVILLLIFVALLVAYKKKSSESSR

B1: Sema1b_(ecto) (domain or fragment, Drosophila melanogaster, UniProt Q7KK54 37-659, looked up)
chain: DVKPDLQTKQDKVLAHFIGNSTDYFKILDHNDEFVLVGAKDVIYNVSLNGLKEIARLEWHSTDADRELCALKGKHEWDCHNYLRVYALRPNGEVLLCGTNSYKPRCRHYTPVEVSSEEAGSAGHAHAMRYEVSRDVEAQGLCPYSPAHNSTYAFADGHLYSATVADFSGGDPLIYRENLRTEQYDLKQLNQPDFVGAIERNGYVLFFFRELSMEVMNFGKAVYSRVARVCKNDRGGPYSHGKSWTSFLKARLNCSVPGEFPFYFDEIQAISPIVESGSKSLIYAVFTTSVNAIPGSAVCAFNVDDILAAFDGEFKSQKDSQSHWLPVEREQVPKPRPGQCVEDSRTLTSIAVNFIKNHPLMEEAVPAVHGRPLLTKVNLHHRLTAIAVHPQVKSLSGAYYDVIYSGTDDGKVTKFINILSTHPNSTVDRLKTVVISEMQVLPLGTPIRELVISTSKNSLVVVSDGSLVSVPLHHCSHIVDCLGCLSLQDPICAWDLQTHECKNLATSQHKFGTKTYLQSLNSTKKAAALLCPHIPRDAPGAETVSFVTMAPPPTEEQKLLYSNVGSSQGNQPSLEQQPTGGDDFGLNKITLTSMDPDDIMPNLNDPQKSTASVDEIKYASTPS
notes: Semaphorin 1b (Sema1b), Drosophila melanogaster, ectodomain, residues 37–659; pHLsec vector; monomer in solution according to the authors' earlier work; also called Sema1b ectodomain; wild-type Sema1b_(ecto); source: HEK 293T, transient transfection, purified from conditioned medium (HisTrap, SEC)
B2: Sema1b_(ecto)‐mutA (domain or fragment, Drosophila melanogaster, UniProt Q7KK54 37-659, looked up)
chain: B1 chain with F167E, Q183R, K187E
notes: Semaphorin 1b (Sema1b), Drosophila melanogaster, ectodomain, residues 37–659, site A mutant; also called Sema1b‐mutA; Sema1b‐mutant A; source: HEK 293T, transient transfection, purified (HisTrap, SEC)
B3: Sema1b‐mRuby2 (ligand, Drosophila melanogaster, UniProt Q7KK54 37-686, looked up)
chain: DVKPDLQTKQDKVLAHFIGNSTDYFKILDHNDEFVLVGAKDVIYNVSLNGLKEIARLEWHSTDADRELCALKGKHEWDCHNYLRVYALRPNGEVLLCGTNSYKPRCRHYTPVEVSSEEAGSAGHAHAMRYEVSRDVEAQGLCPYSPAHNSTYAFADGHLYSATVADFSGGDPLIYRENLRTEQYDLKQLNQPDFVGAIERNGYVLFFFRELSMEVMNFGKAVYSRVARVCKNDRGGPYSHGKSWTSFLKARLNCSVPGEFPFYFDEIQAISPIVESGSKSLIYAVFTTSVNAIPGSAVCAFNVDDILAAFDGEFKSQKDSQSHWLPVEREQVPKPRPGQCVEDSRTLTSIAVNFIKNHPLMEEAVPAVHGRPLLTKVNLHHRLTAIAVHPQVKSLSGAYYDVIYSGTDDGKVTKFINILSTHPNSTVDRLKTVVISEMQVLPLGTPIRELVISTSKNSLVVVSDGSLVSVPLHHCSHIVDCLGCLSLQDPICAWDLQTHECKNLATSQHKFGTKTYLQSLNSTKKAAALLCPHIPRDAPGAETVSFVTMAPPPTEEQKLLYSNVGSSQGNQPSLEQQPTGGDDFGLNKITLTSMDPDDIMPNLNDPQKSTASVDEIKYASTPSFMLLTTIVFFTFLVGGIAGICCVKAKS
notes: Semaphorin 1b (Sema1b), Drosophila melanogaster, residues 37–686: ectodomain followed by a transmembrane segment; also called wild‐type Sema1b‐mRuby2; source: COS-7, transiently transfected, on live cells; not shown: mRuby2, C-terminal, kept
B4: Sema1b‐mutA‐mRuby2 (ligand, Drosophila melanogaster, UniProt Q7KK54 37-686, looked up)
chain: B3 chain with F167E, Q183R, K187E
notes: Semaphorin 1b (Sema1b), Drosophila melanogaster, residues 37–686, site A mutant; source: COS-7, transiently transfected, on live cells; not shown: mRuby2, C-terminal, kept
B5: Sema1b_(ecto)‐mutB (domain or fragment, Drosophila melanogaster, UniProt Q7KK54 37-659, looked up)
chain: DVKPDLQTKQDKVLAHFIGNSTDYFKILDHNDEFVLVGAKDVIYNVSLNGLKEIARLEWHSTDADRELCALKGKHEWDCHNYLRVYALRPNGEVLLCGTNSYKPRCRHYTPVEVSSEEAGSAGHAHAMRYEVSRDVEAQGLCPYSPAHNSTYAFADGHLYSATVADFSGGDPLIYRENLRTEQYDLKQLNQPDFVGAIERNGYVLFFFRELSMEVMNFGKAVYSRVARVCKNDRGGPYSHGKSWTSFLKARLNCSVPGEFPFYFDEIQAISPIVESGSKSLIYAVFTTSVNAIPGSAVCAFNVDDILAAFDGEAAAAAAAAAAAAAAAAAAVPKPRPGQCVEDSRTLTSIAVNFIKNHPLMEEAVPAVHGRPLLTKVNLHHRLTAIAVHPQVKSLSGAYYDVIYSGTDDGKVTKFINILSTHPNSTVDRLKTVVISEMQVLPLGTPIRELVISTSKNSLVVVSDGSLVSVPLHHCSHIVDCLGCLSLQDPICAWDLQTHECKNLATSQHKFGTKTYLQSLNSTKKAAALLCPHIPRDAPGAETVSFVTMAPPPTEEQKLLYSNVGSSQGNQPSLEQQPTGGDDFGLNKITLTSMDPDDIMPNLNDPQKSTASVDEIKYASTPS
notes: Semaphorin 1b (Sema1b), Drosophila melanogaster, ectodomain, residues 37–659, Exβ1‐β2 loop 350–367 replaced by alanines; synthetic clone (Invitrogen-GeneArt); also called Sema1b‐mutB; Sema1b‐mutant B; source: HEK 293T, transient transfection, purified (HisTrap, SEC)
B6: Sema1b‐mutB‐mRuby2 (ligand, Drosophila melanogaster, UniProt Q7KK54 37-686, looked up)
chain: DVKPDLQTKQDKVLAHFIGNSTDYFKILDHNDEFVLVGAKDVIYNVSLNGLKEIARLEWHSTDADRELCALKGKHEWDCHNYLRVYALRPNGEVLLCGTNSYKPRCRHYTPVEVSSEEAGSAGHAHAMRYEVSRDVEAQGLCPYSPAHNSTYAFADGHLYSATVADFSGGDPLIYRENLRTEQYDLKQLNQPDFVGAIERNGYVLFFFRELSMEVMNFGKAVYSRVARVCKNDRGGPYSHGKSWTSFLKARLNCSVPGEFPFYFDEIQAISPIVESGSKSLIYAVFTTSVNAIPGSAVCAFNVDDILAAFDGEAAAAAAAAAAAAAAAAAAVPKPRPGQCVEDSRTLTSIAVNFIKNHPLMEEAVPAVHGRPLLTKVNLHHRLTAIAVHPQVKSLSGAYYDVIYSGTDDGKVTKFINILSTHPNSTVDRLKTVVISEMQVLPLGTPIRELVISTSKNSLVVVSDGSLVSVPLHHCSHIVDCLGCLSLQDPICAWDLQTHECKNLATSQHKFGTKTYLQSLNSTKKAAALLCPHIPRDAPGAETVSFVTMAPPPTEEQKLLYSNVGSSQGNQPSLEQQPTGGDDFGLNKITLTSMDPDDIMPNLNDPQKSTASVDEIKYASTPSFMLLTTIVFFTFLVGGIAGICCVKAKS
notes: Semaphorin 1b (Sema1b), Drosophila melanogaster, residues 37–686, loop 350–367 replaced by alanines; source: COS-7, transiently transfected, on live cells; not shown: mRuby2, C-terminal, kept

Legend:
[1] = target: PlexA_(ecto) (Drosophila melanogaster) (UniProt Q9V491); assay: AUC; sedimentation velocity, 15 mM HEPES pH 7.4, 150 mM NaCl, 40,000 rpm; PlexA1‐4 at 33 μM, PlexA_(ecto) at 2.2 μM
[2] = target: T1, PlexA1‐4‐mVenus; assay: MST
[3] = target: T2, PlexA1‐4‐mVenus; assay: MST; fluorescent PlexA1‐4‐mVenus kept constant, unlabelled Sema1b_(ecto) or mutants titrated; 28°C, 15 mM HEPES pH 7.4, 150 mM NaCl, 2 mM CaCl2, 0.05% Tween‐20; 80% MST power; settings: both partners purified
[4] = target: T3, PlexA‐mClover; assay: FRET or BRET; FRET-FLIM in live COS-7 cells transiently co-transfected with PlexA‐mClover (donor) and semaphorin‐mRuby2 (acceptor), cis on one cell surface, 37°C; donor alone τav 2.72 ± 0.03 ns; settings: partners not purified

Molecule	binding result [3]	average donor lifetime (τav) [4]	average fraction of the interacting donor (fD) [4]	also measured
PlexA_(ecto) (from UniProt Q9V491 28-1272) (domain or fragment)	–	–	–	stoichiometry N [1]: < 4
B1	binds	–	–	Kd [2]: 586 nM
B2	binds	–	–	–
B3	–	2.51 ± 0.06 ns	0.26 ± 0.09	–
B4	–	2.43 ± 0.1 ns	0.37 ± 0.15	–
B5	binds	–	–	–
B6	–	2.53 ± 0.04 ns	0.21 ± 0.07	–

Source: publication PMC7327498, “Structural basis of semaphorin‐plexin cis interaction” (The EMBO Journal, 2020)
